The DeepSol protein solubility set

Assay: soluble on expression in E. coli; label from the status in PepcDB or PDB records
For “MQAYFDQLDRVRYEGPQSTNPLAFRHYNPDELVLGKRMEDHLRFAACYWHTFCWNGADMFGVGAFNRPWQQPGEALELAKRKADVAFEFFHKLNVPFYCFHDVDVSPEGASLKEYKNNFAQMVDVLAAKQEQSGVKLLWGTANCFTNPRYGAGAATNPDPEVFSWAATQVVTAMNATHKLGGENYVLWGGREGYETLLNTDLRQEREQIGRFMQMVVEHKHKMGFQGTLLIEPKPQEPTKHQYDYDVATVYGFLKQFGLEKEIKVNIEANHATLAGHSFHHEIATAIALGIFGSVDANRGDAQLGWDTDQFPISVEENALVMYEILKAGGFTTGGLNFDAKVRRQSTDKYDLFYGHIGAMDTMALSLKIAARMVEDGELDKRVAKRYAGWNGELGQQILKGQLSLGELAQYAEQHNLAPVHQSGHQELLENLVNRYLFDK”, the “soluble on expression in E. coli” value was “not soluble”. In the case of “MGSDKIHHHHHHMSSAPIIYALSNNSLLIDAAHLDANNVLTIQKKIWALAAHCKNTAEFTDLVAGMNSLTLYLKSSAGLTKWLEALPLLWDELKSSTFTGKHHLIETLYEGEDLAYVARFHNLSIDEVISIHSKAQYHVLFLGFQPGFAYLHGLDTRLHTPRRAEPRIKVPKGAVAIGAAQTGIYPSDTPGGWHIIGHTNTTLFNSSHSQPCLMQPGDTLEFVALKNQGAGA”, the “soluble on expression in E. coli” value is reported as “not soluble”. With “STRERLLSALEDLEVLSRELIEMLAISRNQKLLQAGEENQVLELLIHRDGEFQELMKLALNQGKIHHEMQVLEKEVEKRDSDIQQLQKQLKEAEQILATAVYQAKEKLKSIEKARKGAISSEEIIKYAHRISASNAVCAPLTWVPGDPRRPYPTDLEMRSGLLG” the “soluble on expression in E. coli” value was “not soluble”. In the case of “GMFVQSALHQLKVAVDTSIQMLDQYTEIDLKIAPIQSKRSLFEMYAHLSLICHADLLILNGSTEKELHTFYKEQTPETIAQMQKTMIQGYDLLSKTFLSYSNEQLAEMKTAYWGISYSRFEWLLEIVAHFYHHRGQIHILLCEHMKDPNIPLFQ”, the “soluble on expression in E. coli” value is reported as “soluble”. For “MAHHHHHHMHAYSGRMEHRKMVEVKDVPQNMYTYGKEGMSIPISIFKDQADPVIGPEWTYPGIFENKIVAQHWYMEELFDREKSNTFESPWQRQVLDNQVKRRLGKVAWRMSMLNIKTIDIFHKERGASKRPGAGDTKAPATPAGKK”, the “soluble on expression in E. coli” value was “not soluble”. With “GKRLSFEDGLVLYQTKDLPTLMRLANLVRERKHGHKTYFVHSIRVSQTNICYVGCTFCAFQRRFGEEGAWDWDVDEVVAWVKERYQPGLTEIHLTAGHHPKRPFAYYLDLVRALKENFPGVQVKAWTAAEIHHFSKIARLPYREVLKALKEAGLDAMPGGGAEIFAERVRRKIARAKVSAEGWLEIHRTAHELGIPTNATMLYGHIETLEERLDHMDRLRRLQDETGGFMSFIPLAFQPDGNQLARELGKKEFTTGLDDLRNLAVARLYLDNFPHIKGYWATLTPELAQVSLDWGVTDVDGTLIEERIVHMAGSPTPQGLTKRELARIILMAGRIPVER” the “soluble on expression in E. coli” value was “not soluble”. With “MGRKSKNSSQSHAHGPVPGVYPTTTGEVELRADSFLPHAFEVYVNGVPSSHIAQDPEQLEYEYMRWIAAIVDWFVTTHSDPKKLRVTHLGGGACTLARYVCHRYPNARNTVVELDATLATLVREWFDLPRSPQLKIRVGDAWEVAQTFVPSSRDVIIRDVFAGNQTPRRLTTVEFFQQCHQALSPGGLYVANCGDHRDLNVAKAEVQGLREVFDHVACIADPTMLKGRRYGNIILIATDTQLPTDQEQQVLTRLLLGGGVPAQFKGGNWTKNFSSSSTARHD” the “soluble on expression in E. coli” value was “not soluble”. With “MGSDKIHHHHHHMHEDKNDIFESIDTEDFDNKTEEECLELVRKNGLNLIYIKNQTEEICLEAVRQNCNAIKCVQNQTEKICIEAVKQDWRMLEFVEEPTEEICMLAINQDGTALKYIENQTEELCLRAVEKNGAALEYVKEQTEEICIEAVRNSEFGLARVKNQTEKICMEAVKHCSYNLKWVENQTEEICMEAVRQNGLDLKFVKNQTETICLRAVRQNGMALEFVKEQTVGICLKAVRQYGMALKFVKEQTEEICTEAIKQDKRALSFVKGDKEKYKALYDNNEPFAKRYVRNVIEKENRALIKKGEENAKIKIAGKLYDRGMSFEDISDIVEIEISKLKVSLGVF” the “soluble on expression in E. coli” value was “not soluble”. With “HFESIQAVNKTLNKKGLPPIIVHFIEETLQDYELIGMLNNGYIKAIVLDSHKAKLWLNAMDDIKAHKKVPLRKNGNIAWVMRQNSPQLKAVVNKFIQKSRSGTLLGNVIYSKYIDNTNWLNKALNPKKIAQLEKLSA” the “soluble on expression in E. coli” value was “not soluble”. For “MSLSETASWQPSASIPNLLKRAAIMAEIRRFFADRGVLEVETPCMSQATVTDIHLVPFETRFVGPGHSQGMNLWLMTSPEYHMKRLLVAGCGPVFQLCRSFRNEEMGRYHNPEFTMLEWYRPHYDMYRLMNEVDDLLQQVLDCPAAESLSYQQAFLRYLEIDPLSADKTQLREVAAKLDLSNVADTEEDRDTLLQLLFTFGVEPNIGKEKPTFVYHFPASQASLAQISTEDHRVAERFEVYYKGIELANGFHELTDAREQQQRFEQDNRKRAARGLPQHPIDQNLIEALKVGMPDCSGVALGVDRLVMLALGAETLAEVIAFSVDRAEGHHHHHH”, the “soluble on expression in E. coli” value was “soluble”. With “MEKRGVIDTWIDKHRSIYTAATRHAFVVSIRDGSVDLSSFRTWLGQDYLFVRRFVPFVASVLIRACKDSGESSDMEVVLGGIASLNDEIEWFKREGSKWDVDFSTVVPQRANQEYGRFLEDLMSSEVKYPVIMTAFWAIEAVYQESFAHCLEDGNKTPVELTGACHRWGNDGFKQYCSSVKNIAERCLENASGEVLGEAEDVLVRVLELEVAFWEMSRGGQ” the “soluble on expression in E. coli” value was “soluble”. For “MGVCRICGLSLDEISDSIGVCLECLRKGNLDFARKAHRKWREEIGLPVERWAREEGKVCFLCVNSCVIPEGKTGFCGVLRNEGGRLSYITGSHRKAFLHWYYDPHPTNCVALPICPEREHRGFYNFAVFFAGCNLDCLFCQNIDHKYMVKDGRISEGKIVDIDELVEIAMKPRVSCVCFFGGDPTPWTVFALEFAVKLGNRRRICWETNGLAHPRIMERMARVSLESGGIVKIDWKAFSPEVYEALTGVDGKSAVRRIMENVQLVSSMGKGREIPLLVISVLVIPHYIDEKEIEGIAGFISSVDPEIPLVLLAFAPQHLMSDLPTTRKHHMERVKQKALEKGLKRVFVENVWLLS”, the “soluble on expression in E. coli” value was “not soluble”. With “MGSDKIHHHHHHMKEVAIYIYMLAVKITGCLARIFPVKQKVVLLVSFPENSTAIIKQMNEMKVTPKTVVFYDPRVDVTGFNFDFIQLKPKKIKHFISLMFHLNTAKVVITDNYFVELAGLKERKNVTCIQIWHANGALKKFGWEDKAAQKRSARDKKRFQEVYRCFSKVLVGSDEMAAIFQRSFLLEDSHMLKLGIPRTDNFFNQQQLKENAERTNTKLHLSNKKKLLYAPTFRDEELHSTTLHLDIAKMKQALGNEYQLILKLHPSISNDLDEVVDDFVVYADKETPIETILPAVDILITDYSSIPFEFALLEKPMIFFTYDLEEYDKARGLSDGFLATIPGPFVHTTEELIQLIEQEAFDLEMVRAFAAKWNKYSDGHSSERFVSFLKEQLEK” the “soluble on expression in E. coli” value was “not soluble”. With “MAHHHHHHMSQSTSLAYATLFHPSRDSATIQHSAARASAAHQQQVQQSPSITRATDGATYTAEGIAVASLSSLDTWTGFLSSQWAETVKMQLSMPSNAAPVISPSGADLISSLHSIVSRQNKVVAQPQEKLVAQRAKEEKDWEAKKQLSQSTSAEGMPGSFKNTKDEAVSSVDDNVADNAAENTQVCVLLAHLLEHARFLWARAVSQHFRVAQVRKSSSSKDTRSPKKVTADINAEAAMEEERVGLPPISLLFRCLVDGINSEEARQAIVTAGVLPASAWDSGVLGVDQLGILTVFERHVQALRTFPGIVPPLEALREYFAELHPQQLSKYYPSGALDSTLELAEAQMDAFLRFGDETEQMAALLRAGLHPSVRRLLYARALQVPLTVTDGKPMFLAQGELMTNHLRHGLARYLTCSSRQARDKVKRRFHHRYSSSKEENRVRLLQRLALDDMFISVGNSDKYFVYTDDVEVLSTAMVVDHSLPVPKMVQALKQLGRPRDLLDSYVTYLQYPETNLVQQKALPCGVAPLEGFALLLGALCNVTSDTVEQYELAAAIVAQLWSRLQGPTPELFQCCLIFESLVQQLALPAVLHATRNLQYPPLVLAMRWMLTGFADLLDAFEVLSFWDLVLSYHMREMHRRSPLSLPTGLANAAPHDTSTPCALWLLPMYAAAIFVMRAPLVEACRTAAEVDVVFATGHQLRTRSLLQGLLFG” the “soluble on expression in E. coli” value was “not soluble”.
